Reference: US20130012436A1 (Bristol-Myers Squibb, published 2013)

T1: human IL-23 (human, UniProt Q9NPF7 20-189; P29460 23-328)
T1 sequence (looked up) 1: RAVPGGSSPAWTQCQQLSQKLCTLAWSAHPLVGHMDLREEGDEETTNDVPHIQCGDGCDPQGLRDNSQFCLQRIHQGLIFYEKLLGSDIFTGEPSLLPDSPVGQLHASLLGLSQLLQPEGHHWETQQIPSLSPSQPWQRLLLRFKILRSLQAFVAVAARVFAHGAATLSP
T1 sequence (looked up) 2: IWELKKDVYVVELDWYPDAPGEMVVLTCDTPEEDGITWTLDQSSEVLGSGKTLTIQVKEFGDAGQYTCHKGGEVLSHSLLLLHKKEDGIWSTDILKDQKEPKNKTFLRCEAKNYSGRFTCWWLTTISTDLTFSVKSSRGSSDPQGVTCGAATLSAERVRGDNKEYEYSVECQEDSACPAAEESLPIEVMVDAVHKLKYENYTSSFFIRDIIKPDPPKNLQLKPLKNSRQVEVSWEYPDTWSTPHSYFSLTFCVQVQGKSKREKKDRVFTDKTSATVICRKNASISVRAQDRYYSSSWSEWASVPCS


Key:
[1] = target: T1, human IL-23; assay: cell-based or functional assay
[2] = target: T1, human IL-23; assay: SPR, Adnectin captured by anti-His mAb, IL-23 injected
Experimental: All surface plasmon experiments were conducted in HBS-EP (10 mM Hepes 150 mM NaCl 3 mM EDTA 0.05% Surfactant P20) at 25° C. IL-23 was injected over anti-His mAb captured Adnectins for 2 minutes followed by a 10 minute dissociation phase. Evaluation of the binding specificity was completed using Biacore T100 evaluation software. Additional detailed methods are described in Example 4.

Kit 225 pSTAT3 IC50 (nM) [1] [nM]	kon [2] [M⁻¹ s⁻¹]	Kd [2] [nM]	koff [2] [s⁻¹]	Binder
4.9	–	–	–	1434A08 (designed binder) MGVSDVPRDLEVVAATPTSLLISWGHYPMHVRYYRITYGETGGNSPVQEFTVPHRTHTATISGLKPGVDYTITVYAVTYYNEADYSQIPISINYRTEIDKPSQHHHHHH
10.8	–	–	–	1438A09 (designed binder) MGVSDVPRDLEVVAATPTSLLISWGHYPMHVRYYRITYGETGGNSPVQEFTVPRSRYTATISGLKPGVDYTITVYAVTYYNEADYSQIPISINYRTEIDKPSQHHHHHH
8.6	–	–	–	1438B02 (designed binder) MGVSDVPRDLEVVAATPTSLLISWGHYPMHVRYYRITYGETGGNSPVQEFTVPRKTYTATISGLKPGVDYTITVYAVTYYNEADYSQIPISINYRTEIDKPSQHHHHHH
39.6	–	–	–	1438E05 (designed binder) MGVSDVPRDLEVVAATPTSLLISWGHYPMHVRYYRITYGETGGNSPVQEFTVPSNVHTATISGLKPGVDYTITVYAVTYYNEADYSQIPISINYRTEIDKPSQHHHHHH
11.4	–	–	–	1438D01 (designed binder) MGVSDVPRDLEVVAATPTSLLISWGHYPMHVRYYRITYGETGGNSPVQEFTVPNRAHTATISGLKPGVDYTITVYAVTYYNEADYSQIPISINYRTEIDKPSQHHHHHH
2.8	57300	–	–	1572H08 (designed binder, captured by anti-His mAb) MGVSDVPRDLEVVAATPTSLLISWGHYPLHVRYYRITYGETGGNSPVQEFTVPSRKYTATISGLKPGVDYTITVYAVTYYNEADYSQIPISINYRTEIDKPSQHHHHHH
2.3	93500	–	–	1490H06 (designed binder, captured by anti-His mAb) MGVSDVPRDLEVVAATPTSLLISWGHYPLHIRYYRITYGETGGNSPVQEFTVPRQKYTATISGLKPGVDYTITVYAVTYYNEADYSQIPISINYRTEIDKPSQHHHHHH
2	59600	–	–	1487H04 (designed binder, captured by anti-His mAb) MGVSDVPRDLEVVAATPTSLLISWGHYPMHVRYYRITYGETGGNSPVQEFTVPARQYTATISGLKPGVDYTITVYAVTYYQEYEYRYIPISINYRTEIDKPSQHHHHHH
3.7	161000	2.4	0.000382	1487C03 (designed binder, captured by anti-His mAb) MGVSDVPRDLEVVAATPTSLLISWGHYPLHIRYYRITYGETGGNSPVQEFTVPKQVYTATISGLKPGVDYTITVYAVTYYNEADYSQIPISINYRTEIDKPSQHHHHHH
0.3	198000	2.1	0.000408	1491A05 (designed binder, captured by anti-His mAb) MGVSDVPRDLEVVAATPTSLLISWGHYPLHVRYYRITYGETGGNSPVQEFTVPSQVYTATISGLKPGVDYTITVYAVTYYAQENYKEIPISINYRTEIDKPSQHHHHHH
4	120000	2.9	0.000344	1486D05 (designed binder, captured by anti-His mAb) MGVSDVPRDLEVVAATPTSLLISWGHYPLHVRYYRITYGETGGNSPVQEFTVPHQRYTATISGLKPGVDYTITVYAVTYYNEADYSQIPISINYRTEIDKPSQHHHHHH
–	167000	3.5	0.000587	1490H08 (designed binder, captured by anti-His mAb) MGVSDVPRDLEVVAATPTSLLISWGHYPLHIRYYRITYGETGGNSPVQEFTVPNTSHTATISGLKPGVDYTITVYAVTYYNEADYSQIPISINYRTEIDKPSQHHHHHH
–	97300	4.8	0.000465	1490 E02 (designed binder, captured by anti-His mAb) MGVSDVPRDLEVVAATPTSLLISWGHYPMHVRYYRITYGETGGNSPVQEFTVPRTQYTATISGLKPGVDYTITVYAVTYYNEADYSQIPISINYRTEIDKPSQHHHHHH
0.4	197000	1.7	0.000332	1490G02 (designed binder, captured by anti-His mAb) MGVSDVPRDLEVVAATPTSLLISWGHYPMHVRYYRITYGETGGNSPVQEFTVPPRYHTATISGLKPGVDYTITVYAVTYYMEEKYAVIPISINYRTEIDKPSQHHHHHH
20.2	80600	5.7	0.00046	1437A09 (designed binder, captured by anti-His mAb) MGVSDVPRDLEVVAATPTSLLISWGHYPMHVRYYRITYGETGGNSPVQEFTVPSKQHTATISGLKPGVDYTITVYAVTYYNEADYSQIPISINYRTEIDKPSQHHHHHH
0.6	163000	–	–	1490A07 (designed binder, captured by anti-His mAb) MGVSDVPRDLEVVAATPTSLLISWGHYPLHIRYYRITYGETGGNSPVQEFTVPHAKYTATISGLKPGVDYTITVYAVTYYAQENYKEIPISINYRTEIDKPSQHHHHHH
1	117000	1.1	0.000133	1550A07 (designed binder, captured by anti-His mAb) MGVSDVPRDLEVVAATPTSLLISWGHYPMHVRYYRITYGETGGNSPVQEFTVPVPRYTATISGLKPGVDYTITVYAVTYYAQENYKEIPISINYRTEIDKPSQHHHHHH
5.3	99500	1.9	0.000186	1550 E03 (designed binder, captured by anti-His mAb) MGVSDVPRDLEVVAATPTSLLISWGHYPLHIRYYRITYGETGGNSPVQEFTVPRMRHTATISGLKPGVDYTITVYAVTYYSEELYKYIPISINYRTEIDKPSQHHHHHH
2	151000	2.3	0.000352	1486D04 (designed binder, captured by anti-His mAb) MGVSDVPRDLEVVAATPTSLLISWGHYPLHIRYYRITYGETGGNSPVQEFTVPRSTHTATISGLKPGVDYTITVYAVTYYNEADYSQIPISINYRTEIDKPSQHHHHHH
5.6	95600	4.5	0.000426	1490C07 (designed binder, captured by anti-His mAb) MGVSDVPRDLEVVAATPTSLLISWGHYPLHVRYYRITYGETGGNSPVQEFTVPSNRYTATISGLKPGVDYTITVYAVTYYNEADYSQIPISINYRTEIDKPSQHHHHHH
3	103000	3.1	0.000316	1487G03 (designed binder, captured by anti-His mAb) MGVSDVPRDLEVVAATPTSLLISWGHYPLHVRYYRITYGETGGNSPVQEFTVPAHRYTATISGLKPGVDYTITVYAVTYYNEADYSQIPISINYRTEIDKPSQHHHHHH
4	134000	2.8	0.000381	1486B05 (designed binder, captured by anti-His mAb) MGVSDVPRDLEVVAATPTSLLISWGHYPMHVRYYRITYGETGGNSPVQEFTVPSRIYTATISGLKPGVDYTITVYAVTYYNEADYSQIPISINYRTEIDKPSQHHHHHH
3	86200	4.9	0.000425	1486G03 (designed binder, captured by anti-His mAb) MGVSDVPRDLEVVAATPTSLLISWGHYPMHVRYYRITYGETGGNSPVQEFTVPSRYYTATISGLKPGVDYTITVYAVTYYNEADYSQIPISINYRTEIDKPSQHHHHHH
16.8	65900	2.1	0.000135	1550C05 (designed binder, captured by anti-His mAb) MGVSDVPRDLEVVAATPTSLLISWGHYPMHVRYYRITYGETGGNSPVQEFTVPPRRYTATISGLKPGVDYTITVYAVTYYNEADYSQIPISINYRTEIDKPSQHHHHHH
3.3	134000	3.3	0.000446	1437G04 (designed binder, captured by anti-His mAb) MGVSDVPRDLEVVAATPTSLLISWGHYPLHVRYYRITYGETGGNSPVQEFTVPYYHYTATISGLKPGVDYTITVYAVTYYNEADYSQIPISINYRTEIDKPSQHHHHHH
31.9	112000	3.4	0.000379	1486C04 (designed binder, captured by anti-His mAb) MGVSDVPRDLEVVAATPTSLLISWGHYPMHVRYYRITYGETGGNSPVQEFTVPPHRYTATISGLKPGVDYTITVYAVTYYNEADYSQIPISINYRTEIDKPSQHHHHHH
2	150000	1.7	0.00025	1487D09 (designed binder, captured by anti-His mAb) MGVSDVPRDLEVVAATPTSLLISWGHYPMHIRYYRITYGETGGNSPVQEFTVPRSRHTATISGLKPGVDYTITVYAVTYYNEADYSQIPISINYRTEIDKPSQHHHHHH
